Test results as given in the supplement of paper PMC9170038.

Tested on: MS2 coat protein
Test: apparent KD of MS2 coat protein; higher = weaker reporter binding
Settings: Eterna round: R107; input ligand: theophylline 20 uM
Protocol: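 RNA-MaP round R107: designed RNA switches with theophylline, tryptophan, arginine or FMN aptamers are transcribed on-chip within common flanks. They are titrated with SNAP-549-labelled MS2 coat protein in RNA-MaP buffer (100 mM Tris pH 7.5, 80 mM KCl, 4 mM MgCl2), without ligand or with the indicated ligand. Median apparent KD per design.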

Sequence | apparent KD of MS2 coat protein [nM]
GUACGAGUUGAAUGUGAGACUGGCGUGGAAGGAGCGCACGGAGGUGCAGGUAGGUCGCCACAUGAGGAUCACCCAUGUCGGCUAG [XARG-A 23] | 27.3
CAUGCGGCUAGUGAGCGUGGUGAGUAAAGGCGAGGACCGGUACGGCCGCCACUCGAGGCAAGACAUGAGGAUCACCCAUGUUGUA [theeternabot_exclusion_MS2_Trp_A_27] | 19.3
ACAUGAGGAUCACCCAUGUAGCGUAGGGAAGGAGCGGAAUAGAGUCCAGGUAGGUCGCCCAUAUGAUGAUCUCACUUAUUAUCGA [#13 Same State - Arginine A] | 36.7
AUACAUGAGGAUCACCCAUGUGAUGGCCGGCGAGGACCGGUACGGCCGCCACUCGUGAUCCGUCCUGAAAGCAAAGCUCUCAACA [Esraleri] | 85.3
GUUUUCAAGUCGGCCGCCACUGAUACAAUCCUCACCGGUUCACAUGAGGAUCACCCAUGUUCGCUCAGGACCGGGACCUUCUGUG [theeternabot_exclusion_MS2_Trp_B_3] | 141
AGUGUUAUAACUGAUACCAGACUCUCAUGUUUACAUGAGGAUCACCCAUGUUAUUUCUUUGUCCCUUGGCAGCAGAAUUAACACA [JR_SSTheophyB_Sub010] | 175
AAUUUCGUAGGUAAAAGUUUAGAAACUGAAGGAGCGUGGUAUUACACAGGUAGGUCGCAGAUUUUACAUGAGGAUCACCCAUGUU [JR_SSArginiA_Sub008] | 22
CGCAACCCACAUGAGGAUCACCCAUGUGAAGGAGCGCCGAAUAAGGCAGGUAGGUCGCGCAUGAAUAAAUCAUGUAGGAAGCGAA [XArg-A 6 V1&2] | 32.6
UGGUACAUGAGGAUCACCCAUGUUCCAGAUACCAGUGUCCCGGUGCACCCUUGGCAGCUGGUGGUACAUGAGGAUCACCCAUGUG [Exclusion Theophylline A GF13] | 56.3
UAUAUAUACUCGGCCGCCACUGAGAGAGUCAUGUAAACAUGAGGAUCACCCAUGUAAUAUAUAUACAGGACCGGGAGUAUAUUAA [4.A] | 17.3
GGUCAGCAGUCGGCCGCCACUAGUAUACAUGAGGAUCACCCAUGUCCCUUGCGCCUCACCGAUUUUAGGACCGGGACACUGCCUG [theeternabot_exclusion_MS2_Trp_B_9] | 42
AGUAGUUGACAAAAGUCAGCUACAAUUGAAGGAGCGGGUGGGUGCCCAGGUAGGUCGCAAUAACAUGAGGAUCACCCAUGUAUAA [ArgAS 2 #BothOrNeither #OpenEnded] | 22.9
ACAUGAGGAUCACCCAUGUGUGUAAGUCCUCGAGGACCGGUACGGCCGCCACUCGAUUGAGUGUAAGUUGAAUGUAACAUUCAAC [whbob_SS_trypto A_2s10] | 22.8
GUAUUAAGAAAACUUGAUACAGUGGGUGAACGAGGACCGGUACGGCCGCCACUCGGACAUGAGGAUCACCCAUGUCCAUGUGAAA [AstrosExyTryA#11] | 18.6
UGUAUGUGAUCUGAUACCAGAGUGAAUAAACCUGAGGAUCACCCUGGUACGCGAAAGCGACUCCCUUGGCAGCAGAUCGCAUACU | 108
UAUAUAUAUCACUAACUGUUCUUGAGGUCUCGAGGACCGGUACGGCCGCCACUCGGGCCGCCUCACAUGAGGAUCACCCAUGUCC [XTryp A #3] | 94.8
AUGCGGUGCGGAAGGAGCGAGUUUGCCUAUUACAUGAGGAUCACCCAUGUGGGUAAUGGGACUCAGGUAGGUCGCCGUUGUCGCA [Same State Arginine B GF 28] | 77.9
ACCUGCGUUUGAUUCUAUCUGACGCAGGUUCGAGGACCGGUACGGCCGCCACUCGGACAUGAGGAUCACCCAUGUUUGACAUGGG [#03 Exclusion Tryptophan A] | 608
UGACGAUACCUGGAUACCAGCGACAUGAGGAUCACCCAUGUAUGAGGAUCAGCCAUGAUAUGCCCUUGGCAGCCACGAAAGUCUU [VUVMULLIN] | 27.5
AGCCGUACGUACGGAAACGUACGUACGGCACGAGGACCGGUACGGCCGCCACUCGCCCACAUGAGGAUCACCCAUGUAGUGGGUG [The One Line] | 58.2

Same assay, conditions: Eterna round: R107; input ligand: theophylline 2 mM

Sequence | apparent KD of MS2 coat protein [nM]
AAACCAAGGGAUGGGUGCCUUGGUAGUGAUACCAGCCUGGAAACAGGCCCUUGGCAGCACAUGAGGAUCACCCAUGUGAAAUAAU [TheoAX 18#OpenEnded] | 69.2
GGAUAGGACAGAAGGAGCGACAUGGCGACGAAAGUCGAAACUUCACAUGAGGAUCACCCAUGUCAGGUAGGUCGCUGUCCUAUCG [ArgXB 7 #MS2Gate #StaticStem] | 55.7
UAGACGGCCGGAAGGAGCGGUACAUGAGGAUCACCCAUGUAUCUCUGGGCAUCCGUAGAGUGCCAGGUAGGUCGCCGGUUGCGGG [XArg-B22] | 11.5
UGUAUGGACUGAAGGAGCGCCUCAAAAUAACAUGAGGAUCACCCAUGUAGGCGAAAGCCUGGGCAGGUAGGUCGCAGUCCAUACU [ArgBX 2 #StaticStem #MS2Late] | 13.4
CCCAGUUAUAACAAAGGAAUAAUACUCGAAGGAGCGUCAUAGUAGGCAGGUAGGUCGCGAGACAUGAGGAUCACCCAUGUAGAGA [qvvmullin] | 32.2
AAGACGCCGGGAAGGAGCGCAUCCAAACCACACAUGAGGAUCACCCAUGUAUAAAUAUGCAUGCAGGUAGGUCGCCCGAUGUCCC [Orbemative] | 42.6
CCGACGAUGACUAUGGGUCAGGAGUGCGUACGAGGACCGGUACGGCCGCCACUCGAGGAGUGGGACAUGAGGAUCACCCAUGUGG [#19 Exclusion Tryptophan A] | 54.8
ACGUAAUGCAGAAGGAGCGUCAUUCUCUUACAUGAGGAUCACCCAUGUUACAUGGUUUUAUGACAGGUAGGUCGCUGAAGUACGA [JR_SSArginiB_Sub004] | 138
UACCCAUGAGUUGGAAAAGCUCAUGGGUAUCGAGGACCGGUACGGCCGCCACUCGGCUGUACAUGAGGAUCACCCAUGUCAGGGU [#1 Same State - Tryptophan A Attempt #24 (HarryS)] | 721
CCAUGCAGGUCGGCCGCCACUACACACAUGAGGAUCACCCAUGUAGUUACUGGGUGAAGUGGCAGUAGGACCGGGACCUGCACAU [Brourdmod19] | 541
GUAUACAUGAGGAUCACCCAUGUACCAGAAGGAGCGCUGGAAACAGCAGGUAGGUCGCUGGUAGGUCCUCUAUCUAGACGUUCGG [EAA NP+V+V2 #4] | 201
CGUUGGUGUGGAGACAUAUUGAUGACUGAAGGAGCGGGAAUAAACCCAGGUAGGUCGCAGAGAUCCACAUGAGGAUCACCCAUGU [!0.R] | 154
GCGUCGGUCGGAAGGAGCGACAUGAGGAUCACCCAUGUCUCCCGUUAUGGGAGUUCCUUAGGUCAGGUAGGUCGCCGACGGACGC [#1 Exclusion - Arginine B Attempt #19 (Inspired by Omei)] | 216
AAUUUAAACGGAAGGAGCGUCACUUAAUAUCAACAUGAGGAUCACCCAUGUAAGGGUUGUAGACAGGUAGGUCGCCGUCAUUUGA [JR_AAArginiB_Sub023] | 41.9
AACAACUAGUCGGCCGCCACUCAUAAUACAUGAGGAUCACCCAUGUAUACUUGGUUUUUAUAUUUGAGGACCGGGACAGUUGCAU [JR_Nu_ExcTryptoB_Sub026] | 10.7
ACAUGAGGAUCACCCAUGUUAUUUACCGAAGGAGCGGGUAUAUACCCAGGUAGGUCGCGGACAACAUGAGGAUCACCCACAUGAG [AstrosSSArgA#21] | 71.4
GUACGAGUUGAAUGUGAGACUGGCGUGGAAGGAGCGCACGGAGGUGCAGGUAGGUCGCCACAUGAGGAUCACCCAUGUCGGCUAG [XARG-A 23] | 29
CAUGCGGCUAGUGAGCGUGGUGAGUAAAGGCGAGGACCGGUACGGCCGCCACUCGAGGCAAGACAUGAGGAUCACCCAUGUUGUA [theeternabot_exclusion_MS2_Trp_A_27] | 15.9
ACAUGAGGAUCACCCAUGUAGCGUAGGGAAGGAGCGGAAUAGAGUCCAGGUAGGUCGCCCAUAUGAUGAUCUCACUUAUUAUCGA [#13 Same State - Arginine A] | 40.8
AUACAUGAGGAUCACCCAUGUGAUGGCCGGCGAGGACCGGUACGGCCGCCACUCGUGAUCCGUCCUGAAAGCAAAGCUCUCAACA [Esraleri] | 303
GUUUUCAAGUCGGCCGCCACUGAUACAAUCCUCACCGGUUCACAUGAGGAUCACCCAUGUUCGCUCAGGACCGGGACCUUCUGUG [theeternabot_exclusion_MS2_Trp_B_3] | 142
AAUUUCGUAGGUAAAAGUUUAGAAACUGAAGGAGCGUGGUAUUACACAGGUAGGUCGCAGAUUUUACAUGAGGAUCACCCAUGUU [JR_SSArginiA_Sub008] | 21.7
